Assay results: PMC5365143

Molecular target: EGFP-HDQ74 (mutant huntingtin exon 1 with 74 glutamine residues)
Test: FRET or BRET

B1: AavLEA1-mCherry (natural protein)
chain: MSSQQNQNRQGEQQEQGYMEAAKEKVVNAWESTKETLSSTAQAAAEKTAEFRDSAGETIRDLTGQAQEKGQEFKERAGEKAEETKQRAGEKMDETKQRAGEMRENAGQKMEEYKQQGKGKAEELRDTAAEKLHQAGEKVKGRD
dFRET: 3%
